Results taken from US20190071490A1, “Preventing Post-Ictal Headaches” (Beth Israel Deaconess Medical Center, Inc., priority 2017, published 2019).

System: naïve central trigeminovascular neurons (HT, WDR) in the spinal trigeminal nucleus
Assay: Single-unit recording of spontaneous and evoked activity of naïve trigeminovascular neurons
Assay type: in vivo, rat
Conditions: 30 mg/kg i.v.; for effect on spontaneous activity of naïve HT and WDR neurons: 1-4 hours post-treatment vs baseline
Source text: Experiments were approved by the Beth Israel Deaconess Medical Center and Harvard Medical School standing committees on animal care, and in accordance with the U.S. National Institutes of Health Guide for the Care and Use of Laboratory Animals. Male and female Sprague-Dawley rats (250-350 g) were anesthetized with urethane (0.9-1.2 g/kg i.p.). They were fitted with an intra-tracheal tube to allow artificial ventilation (0.1 L/min of O2), and an intra-femoral-vein cannula for later infusion of drugs. Rats were placed in a stereotaxic apparatus, and core temperature was kept at 37° C. using a heating blanket. End-tidal CO2 was continuously monitored and kept within physiological range (3.5-4.5 pCO2). Once stabilized, rats were paralyzed with rocuronium bromide (10 mg/ml, 1 ml/hr continuous intravenous infusion) and ventilated. For stimulation of the cranial dura later in the experiment, a 5×5-mm opening was carefully carved in the parietal and occipital bones in front and behind the lambda suture, directly above the left transverse sinus. The exposed dura was kept moist using a modified synthetic interstitial fluid (135 mM NaCl, 5 mM KCl, 1 mM MgCl2, 5 mM CaCl2), 10 mM glucose and 10 mM Hepes, pH 7.2). For single-unit recording in the spinal trigeminal nucleus, a segment of the spinal cord between the obex and C2 was uncovered from overlying tissues, stripped of the dura mater, and kept moist with mineral oil.
To record neuronal activity, a tungsten microelectrode (impedance 3-4 MΩ) was lowered repeatedly into the spinal trigeminal nucleus (STN) in search of central trigeminovascular neurons receiving convergent input from the dura and facial skin. Trigeminovascular neurons were first identified based on their responses to electrical stimulation of the dura. […] Dural receptive fields were mapped by indenting the dura (with the 4.19 g VFH monofilament) at points separated by 1 mm mediolaterally and rostrocaudally. Points at which dural indentation produced a response in ≥50% of the trials were considered inside the neurons receptive field. Cutaneous receptive fields were mapped by applying innocuous and noxious mechanical stimulation to all facial skin areas and the cornea. An area was considered outside the receptive field if no stimulus produced a response in ≥50% of the trials. Responses to mechanical stimulation of the skin were determined by applying brief (10 s) innocuous and noxious stimuli to the most sensitive portion of the cutaneous receptive field. Innocuous stimuli consisted of slowly passing a soft bristled brush across the cutaneous receptive field (one 5-s brush stroke from caudal to rostral and one 5-s brush stroke from rostral to caudal) and pressure applied with a loose arterial clip. Noxious stimuli consisted of pinch with a strong arterial clip (Palecek et al., 1992, J. Neurophysiol. 67:1562-1573; Dado et al., 1994, J. Neurophysiol. 71:981-1002; Burstein et al., 1998, J. Neurophysiol. 79:964-982). More intense or prolonged stimuli were not used to avoid inducing prolonged changes in spontaneous neuronal discharge or response properties. Responses to mechanical stimulation of the cornea consisted of gentle and slow brushing strokes with a thin paintbrush (about 10 hair-follicles). Two classes of neurons were thus identified: wide-dynamic-range (WDR) neurons (incrementally responsive to brush, pressure and pinch), and high-threshold (HT) neurons (unresponsive to brush). Real-time waveform discriminator was used to create and store a template for the action potential evoked in the neuron under study by electrical pulses on the dura; spikes of activity matching the template waveform were acquired and analyzed online and offline using Spike 2 software (CED, Cambridge, UK).
It was diluted in saline to a final dose of 30 mg/kg and administered intravenously (bolus injection, total volume 0.6-0.7 ml). […]

B1: G1: humanized monoclonal anti-CGRP antagonist antibody; heavy chain SEQ ID NO:11, light chain SEQ ID NO:12 (antibody)
heavy: EVQLVESGGGLVQPGGSLRLSCAASGFTFSNYWISWVRQAPGKGLEWVAEIRSESDASATHYAEAVKGRFTISRDNAKNSLYLQMNSLRAEDTAVYYCLAYFDYGLAIQNYWGQGTLVTVSSASTKGPSVFPLAPCSRSTSESTAALGCLVKDYFPEPVTVSWNSGALTSGVHTFPAVLQSSGLYSLSSVVTVPSSNFGTQTYTCNVDHKPSNTKVDKTVERKCCVECPPCPAPPVAGPSVFLFPPKPKDTLMISRTPEVTCVVVDVSHEDPEVQFNWYVDGVEVHNAKTKPREEQFNSTFRVVSVLTVVHQDWLNGKEYKCKVSNKGLPSSIEKTISKTKGQPREPQVYTLPPSREEMTKNQVSLTCLVKGFYPSDIAVEWESNGQPENNYKTTPPMLDSDGSFFLYSKLTVDKSRWQQGNVFSCSVMHEALHNHYTQKSLSLSPGK
light: EIVLTQSPATLSLSPGERATLSCKASKRVTTYVSWYQQKPGQAPRLLIYGASNRYLGIPARFSGSGSGTDFTLTISSLEPEDFAVYYCSQSYNYPYTFGQGTKLEIKRTVAAPSVFIFPPSDEQLKSGTASVVCLLNNFYPREAKVQWKVDNALQSGNSQESVTEQDSKDSTYSLSSTLTLSKADYEKHKVYACEVTHQGLSSPVTKSFNRGEC
With B1 the “effect on spontaneous activity of naïve HT and WDR neurons” value (female rats) was “did not reduce the spontaneous activity of HT or WDR neurons”, the “decrease of firing of HT neurons in response to dural indentation” value (female rats, p=0.017) was 61% and the “effect on sensitivity to mechanical stimulation of the dura (dural indentation), HT and WDR neurons” value (male and female rats) was “reduced the sensitivity to mechanical stimulation of the dura in the HT but not the WDR neurons”. The “effect on responses to innocuous (brush, pressure) or noxious (pinch) mechanical stimulation of the skin or the cornea” value (male or female rats, HT or WDR neurons) was “did not alter the responses of HT or WDR neurons”, the “effect on spontaneous activity of naïve HT and WDR neurons” value (male rats) was “reduced the spontaneous activity of the HT but not the WDR neurons” and the “decrease of firing of HT neurons in response to dural indentation” value (male rats, p=0.047) was 75%. The “decrease of spontaneous neuronal firing, HT neurons” value (male rats, within 3-4 hrs, p=0.040) was 90%.
